Assay [1] has as its target T1, MAGI2-2, second PDZ domain of MAGI2 (human, UniProt Q86UL8 426-510).
T1 construct: not shown: His6, N-terminal, kept; MBP, N-terminal, kept
As to the kind of experiment: fluorescence polarisation; competitive: pre-formed complex of PDZ domain (>60-80% complex) and 50 nM fluorescent tracer peptide, increasing amount of unlabeled PTEN peptide (8 concentrations); 20 mM HEPES pH 7.5, 150 mM NaCl, 0.5 mM TCEP, 0.01% Tween 20; triplicate; competitive binding model (ProFit); apparent. As to conditions: both partners purified. (Polarisation of emitted light reports the rotation of a fluorescent probe.)

Assay [2] has as its target T2, GRID2IP-2, second PDZ domain of GRID2IP (human, UniProt A4D2P6 279-356).
T2 construct: GRID2IP, human, PDZ domain 2; not shown: His6, N-terminal, kept; MBP, N-terminal, kept
The description is as above. As to conditions: both partners purified.

The target of assay [3] is T3, PDZD7-3, third PDZ domain of PDZD7 (human, UniProt Q9H5P4 862-934).
T3 construct: PDZD7, human, PDZ domain 3; not shown: His6, N-terminal, kept; MBP, N-terminal, kept
T3 sequence (looked up): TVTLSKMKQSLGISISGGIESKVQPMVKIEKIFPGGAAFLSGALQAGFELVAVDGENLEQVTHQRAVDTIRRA
Described as above. The conditions noted are these: both partners purified.

A further assay concerns the target T4, MAGI2-2 (human, UniProt Q86UL8 426-510).
T4 construct: PDZ domain number 2 of human MAGI2; also called MAGI2 PDZ dom 2; source: E. coli, in crude cell lysate; not shown: His, N-terminal, kept
As to the kind of experiment: holdup assay; biotinylated PBM peptide saturating streptavidin resin (biotin resin as reference); tag-PDZ at 4 uM in crude E. coli lysate, 15 min, filtration, free tag-PDZ by capillary electrophoresis; singlicate; BI cut-off 0.20; BI converted into KD with the peptide concentration back-calculated from FP. As to conditions: one partner purified.

The target of a further assay is T5, MAGI1-3 (human, UniProt Q96QZ7 643-721).
T5 construct: PDZ domain number 3 of human MAGI1; also called MAGI1 PDZ dom 3; source: E. coli, in crude cell lysate; not shown: His, N-terminal, kept
T5 sequence (Q96QZ7 643-721): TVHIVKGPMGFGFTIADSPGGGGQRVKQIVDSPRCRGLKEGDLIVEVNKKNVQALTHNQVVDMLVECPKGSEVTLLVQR
Described as above. The conditions noted are these: one partner purified.

In the next assay the target is DLG4-1 (human, UniProt P78352 65-151). Described as above. As to conditions: one partner purified.
DLG4-1, sequence (P78352 65-151, looked up): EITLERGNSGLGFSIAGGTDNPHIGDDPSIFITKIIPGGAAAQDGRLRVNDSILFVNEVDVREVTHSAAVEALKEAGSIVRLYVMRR
The next assay has as its target T6, NHERF1-1 (human, UniProt O14745 14-94).
T6 construct: PDZ domain number 1 of human NHERF1; also called NHERF1 PDZ dom 1; first PDZ domain of the NHERF1 protein; source: E. coli, in crude cell lysate; not shown: His, N-terminal, kept
T6 sequence (looked up): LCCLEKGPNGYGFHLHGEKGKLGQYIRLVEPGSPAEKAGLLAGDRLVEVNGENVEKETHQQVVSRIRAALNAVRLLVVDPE
Described as above. The conditions noted are these: one partner purified.

A further assay concerns the target T7, MAGI2-3 (human, UniProt Q86UL8 605-683).
T7 construct: PDZ domain number 3 of human MAGI2; also called MAGI2 PDZ dom 3; source: E. coli, in crude cell lysate; not shown: His, N-terminal, kept
The assay is described as above. The conditions noted are these: one partner purified.

The target in a further assay is T8, MAGI3-2 (human, UniProt Q5TCQ9 410-492).
T8 construct: PDZ domain number 2 of human MAGI3; also called MAGI3 PDZ dom 2; source: E. coli, in crude cell lysate; not shown: His, N-terminal, kept
T8 sequence (Q5TCQ9 410-492): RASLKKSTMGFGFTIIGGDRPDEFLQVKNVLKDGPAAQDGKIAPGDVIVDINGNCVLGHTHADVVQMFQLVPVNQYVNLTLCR
Described as above. As to conditions: one partner purified.

The target of another assay is T9, PTPN13-2 (human, UniProt Q12923 1368-1452).
T9 construct: PDZ domain number 2 of human PTPN13; also called PTPN13 PDZ dom 2; source: E. coli, in crude cell lysate; not shown: His, N-terminal, kept
T9 sequence (looked up): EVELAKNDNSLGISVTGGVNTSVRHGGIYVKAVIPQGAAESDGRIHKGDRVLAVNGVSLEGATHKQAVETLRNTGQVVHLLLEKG
Described as above. As to conditions: one partner purified.

In a further assay the target is T10, DLG1-2 (human, UniProt Q12959 319-405).
T10 construct: PDZ domain number 2 of human DLG1; also called DLG1 PDZ dom 2; source: E. coli, in crude cell lysate; not shown: His, N-terminal, kept
Described as above. The conditions noted are these: one partner purified.

Another assay deals with T11, PARD3-3 (human, UniProt Q8TEW0 590-677).
T11 construct: the text says PARD3-1; also called PARD3 PDZ dom 3; source: E. coli, in crude cell lysate; not shown: His, N-terminal, kept
T11 sequence (Q8TEW0 590-677): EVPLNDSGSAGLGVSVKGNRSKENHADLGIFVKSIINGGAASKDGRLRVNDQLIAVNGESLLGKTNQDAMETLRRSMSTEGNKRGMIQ
The assay is described as above. As to conditions: one partner purified.

A further assay has as its target T12, NHERF2-1 (human, UniProt Q15599 11-90).
T12 construct: PDZ domain number 1 of human NHERF2; also called NHERF2 PDZ dom 1; source: E. coli, in crude cell lysate; not shown: His, N-terminal, kept
The assay is described as above. The conditions noted are these: one partner purified.

Another assay has as its target T13, NHERF2-2 (human, UniProt Q15599 150-230).
T13 construct: PDZ domain number 2 of human NHERF2; also called NHERF2 PDZ dom 2; source: E. coli, in crude cell lysate; not shown: His, N-terminal, kept
Described as above. As to conditions: one partner purified.

For assay [4], the target named is T2, GRID2IP-2, second PDZ domain of GRID2IP. As to the kind of experiment: fluorescence polarisation; direct: N-terminally fluorescein-labelled PBM peptide (tracer) with increasing amounts of MBP-PDZ; 384-well plates; triplicate; direct binding model (ProFit). As to conditions: both partners purified.
In assay [5] the target is T14, PARD3B-1, first PDZ domain of PARD3B (human, UniProt Q8TEW8 201-289).
T14 construct: PARD3B, human, PDZ domain 1; not shown: His6, N-terminal, kept; MBP, N-terminal, kept
T14 sequence (looked up): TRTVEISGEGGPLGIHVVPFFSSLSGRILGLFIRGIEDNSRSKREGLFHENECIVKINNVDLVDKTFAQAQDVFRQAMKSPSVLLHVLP
Described as above. The conditions noted are these: both partners purified.

Assay [6] has as its target T3, PDZD7-3, third PDZ domain of PDZD7. The assay is described as above. As to conditions: both partners purified.

Where no end group is shown, it is not given here. The star is where a group is joined. Biotin = O=C1N[C@H]2[C@H](CS[C@H]2CCCCC(=O)*)N1; TTDS = NCCCOCCOCCOCCCNC(=O)CCC(=O)*

T7 sequence (Q86UL8 605-683): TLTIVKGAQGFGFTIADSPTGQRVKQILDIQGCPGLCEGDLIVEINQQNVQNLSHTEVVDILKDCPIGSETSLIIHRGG
T4 sequence (Q86UL8 426-510): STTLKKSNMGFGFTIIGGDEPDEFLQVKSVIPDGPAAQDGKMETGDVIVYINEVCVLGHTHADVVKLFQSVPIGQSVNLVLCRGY
T2 sequence (A4D2P6 279-356): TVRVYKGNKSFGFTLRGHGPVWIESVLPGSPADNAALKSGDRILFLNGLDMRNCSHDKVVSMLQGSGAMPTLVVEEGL
T1 sequence (Q86UL8 426-510): as the sequence (Q86UL8 426-510) above
T13 sequence (Q15599 150-230): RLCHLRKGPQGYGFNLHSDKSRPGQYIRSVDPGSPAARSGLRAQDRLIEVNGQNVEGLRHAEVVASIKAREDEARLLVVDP
T12 sequence (Q15599 11-90): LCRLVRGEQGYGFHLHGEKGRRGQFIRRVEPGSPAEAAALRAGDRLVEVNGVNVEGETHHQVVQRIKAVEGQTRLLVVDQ

B1: PTEN_Ac, 11-mer PTEN PDZ-binding motif peptide acetylated at K402 (peptide)
peptide: {Biotin-TTDS}-DEDQHTQITK(Ac)V
notes: PTEN, human, canonical isoform I, residues 393-403, K402 acetylated (acK); source: synthetic peptide (Chemical Peptide Synthesis Service of the IGBMC)
With B1, the figures for the Kd in assay [1], in assay [2] and in assay [3] were 66.4 µM, 36.7 µM and 2.84 µM, respectively.

B2: PTEN_11 (peptide, UniProt P60484 393-403, looked up)
peptide: {Biotin-TTDS}-DEDQHTQITKV
notes: also called 11-mer wild-type PTEN PBM peptide; native PTEN_11 PBM; source: synthetic peptide (Chemical Peptide Synthesis Service of the IGBMC, Fmoc)
Consider B2, for which the Kd with MAGI2-2 is 152 µM; in the assay with MAGI1-3, 30 µM; with DLG4-1, 293 µM; with NHERF1-1 it was 33 µM; in the assay with MAGI2-3 it was 47 µM.

B3: PTEN_13, 13-mer wild-type PDZ-binding motif peptide of PTEN (peptide)
peptide: {Biotin-TTDS}-PFDEDQHTQITKV
notes: source: synthetic peptide, bought: JPT Innovative Peptide Solutions (70%-80% purity)
For the molecule B3, the Kd was found to be 79.7 µM in [1] and 5.76 µM in [3].

B4: PTEN_KR (peptide, UniProt P60484 393-403, looked up)
peptide: {Biotin-TTDS}-DEDQHTQITRV
notes: also called K402R mutant; source: synthetic peptide (Chemical Peptide Synthesis Service of the IGBMC, Fmoc)
B4: the Kd with MAGI3-2 is 29 µM; with MAGI2-2, 29 µM; with MAGI1-3, 15 µM; with PTPN13-2 it was 153 µM; with DLG4-1, 81 µM; with NHERF1-1, 4 µM. Also, the Kd with DLG1-2 was 71 µM; with PARD3-3 it was 56 µM; in the assay with MAGI2-3, 21 µM; with NHERF2-1 it was 120 µM; in the assay with NHERF2-2, 21 µM.

B5: PTEN_Ac (peptide, UniProt P60484 393-403, looked up)
peptide: {Biotin-TTDS}-DEDQHTQITK(Ac)V
notes: also called acetylated version of PTEN_11; acetylated peptide; source: synthetic peptide (Chemical Peptide Synthesis Service of the IGBMC, Fmoc)
As to B5, the Kd with MAGI2-2 was 56 µM; with MAGI1-3, 10 µM; in the assay with DLG4-1 it was 155 µM; in the assay with NHERF1-1, 14 µM; with MAGI2-3, 15 µM.

B6: fRSK1, fluorescein-labelled RSK1 PBM peptide (peptide)
peptide: fluorescein-KLPSTTL
notes: source: synthetic peptide
As for B6, the Kd was 5.43 µM in [4], 33.7 µM in assay [5] and 1570 nM in assay [6].

B7: PTEN_11, 11-mer wild-type PDZ-binding motif peptide of PTEN (peptide)
peptide: {Biotin-TTDS}-DEDQHTQITKV
notes: Labelled 'PTEN' in Supp; source: synthetic peptide (Chemical Peptide Synthesis Service of the IGBMC)
Regarding B7, the Kd in assay [2] turned out to be 87 µM; in assay [3] it was 20.1 µM.

B8: PTEN_KR, 11-mer PTEN PDZ-binding motif peptide with K402R (peptide)
peptide: {Biotin-TTDS}-DEDQHTQITRV
notes: PTEN, human, canonical isoform I, residues 393-403 with K402R; source: synthetic peptide (Chemical Peptide Synthesis Service of the IGBMC)
Take B8: the Kd in assay [2] stood at 51.6 µM; in assay [3], 8.2 µM.
